Reference: patent publication US12024547B2, “KLK5 inhibitory peptide” (DAIICHI SANKYO COMPANY, LIMITED, priority 2018, dated 2024)
Where a chain is given by its changes, count along the chain named.

B1: K51005: KLK5/KLK7 inhibitory peptide (SPINK2 mutant), amino acid sequence SEQ ID NO: 24 (protein)
chain: GPQFGLFSKYRTPNCMQHARQGCHYDYDPVCGSDMSTYANECTLCMKIREGGHNIKIIRNGPCGG
B2: K50062: KLK5 inhibitory peptide (SPINK2 mutant), amino acid sequence SEQ ID NO: 16 (protein)
chain: B1 chain with M16Q, H18Y, A19R, R20E, Q21L, H24G, Y25R, D26Q
B3: K51069: KLK5/KLK14 inhibitory peptide (SPINK2 mutant), amino acid sequence SEQ ID NO: 30 (protein)
chain: B1 chain with M16S, H18V, A19V, R20E, Q21T, G22Y, H24N, Y25R
B4: K51034: KLK5 inhibitory peptide (SPINK2 mutant), amino acid sequence SEQ ID NO: 14 (protein)
chain: GPQFGLFSKYRTPNCGRYTTGGCNKEYEPVCGSDMSTYANECTLCMKIREGGHNIKIIRNGPCGG
B5: K50031: KLK5/KLK7 inhibitory peptide (SPINK2 mutant), amino acid sequence SEQ ID NO: 26 (protein)
chain: B4 chain with R17E, T19K, T20G, G21R, N24Y, K25Y, E26H, E28D
B6: K50015: KLK5/KLK14 inhibitory peptide (SPINK2 mutant), amino acid sequence SEQ ID NO: 32 (protein)
chain: B4 chain with G16Y, R17D, Y18T, G21H, G22Y, N24S, K25R, E28D
B7: K51028: KLK5/KLK7 inhibitory peptide (SPINK2 mutant), amino acid sequence SEQ ID NO: 22 (protein)
chain: B4 chain with G16Y, R17Q, T19R, T20S, G21K, N24T, K25H, E28D
B8: K51057: KLK5/KLK7 inhibitory peptide (SPINK2 mutant), amino acid sequence SEQ ID NO: 28 (protein)
chain: B4 chain with R17T, Y18M, T19Q, T20G, G21S, N24T, K25Y, E26H
B9: K50098: KLK5 inhibitory peptide (SPINK2 mutant), amino acid sequence SEQ ID NO: 20 (protein)
chain: B4 chain with G16T, R17S, Y18Q, T20L, G22S, N24S, K25R, E28D
B10: K50016: KLK5 inhibitory peptide (SPINK2 mutant), amino acid sequence SEQ ID NO: 12 (protein)
chain: GPQFGLFSKYRTPNCSQWQYSSCDRVYDPVCGSDMSTYANECTLCMKIREGGHNIKIIRNGPCGG
B11: K50032: KLK5 inhibitory peptide (SPINK2 mutant), amino acid sequence SEQ ID NO: 6 (protein)
chain: B10 chain with S16L, Q17N, Q19T, Y20D, S21H, S22Q, D24E, V26D
B12: K51072: KLK5 inhibitory peptide (SPINK2 mutant), amino acid sequence SEQ ID NO: 10 (protein)
chain: GPQFGLFSKYRTPNCQEDMTEYCARDFDPVCGSDMSTYANECTLCMKIREGGHNIKIIRNGPCGG
B13: K51090: KLK5 inhibitory peptide (SPINK2 mutant), amino acid sequence SEQ ID NO: 18 (protein)
chain: GPQFGLFSKYRTPNCDEIGKYGCGRSYDPVCGSDMSTYANECTLCMKIREGGHNIKIIRNGPCGG
B14: K50055: KLK5 inhibitory peptide (SPINK2 mutant), amino acid sequence SEQ ID NO: 8 (protein)
chain: B13 chain with D16A, E17N, I18T, G19M, Y21Q, G22D, G24T, S26E

Each molecule was assayed against T1, KLK5 (Homo sapiens, UniProt Q9Y337) (assay: KLK5 binding activity of KLK5 inhibitory peptide, surface plasmon resonance (biotinylated KLK5 captured, peptide as analyte)). Conditions: BIAcore T 200, single cycle kinetics.
T1 construct: “Active KLK5” means active KLK5, which is composed of a domain having a protease activity; His tag (C); FLAG (Gly-DYKDDDDK before the His tag); made in house; host or cells: Expi293F cells
T1 sequence (Q9Y337 67-293): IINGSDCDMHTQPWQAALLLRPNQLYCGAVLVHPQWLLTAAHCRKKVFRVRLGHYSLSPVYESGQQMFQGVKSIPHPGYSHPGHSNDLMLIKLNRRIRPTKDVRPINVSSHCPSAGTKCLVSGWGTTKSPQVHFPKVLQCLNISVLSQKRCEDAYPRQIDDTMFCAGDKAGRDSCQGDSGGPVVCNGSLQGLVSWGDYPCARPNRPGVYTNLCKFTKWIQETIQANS
Protocol: In order to measure the binding affinity of the KLK5 inhibitory peptides, surface plasmon resonance analysis was conducted using BIAcore T 200 (GE healthcare). A complementary strand of DNA of a streptavidin conjugate was captured by hybridization on Sensor Chip CAP (GE healthcare) on which single-stranded DNA immobilized. Next, KLK5 biotinylated using EZ-Link NHS-PEG4-Biotin (Thermo Fisher Scientific) was captured at a flow rate of 10 μL/min to immobilize about 10 RU. Thereafter, the KLK5 inhibitory peptide, serially diluted 2-fold with HBS-EP (0.625 to 10 nM), was added thereto as an analyte at a flow rate of 30 μL/min. In the BIAcore T 200 Evaluation software (version 2.0), kon and koff were calculated by analysis using Single cycle kinetics in a simple one-to-one Langmuir binding model. The dissociation constant KD was calculated as a ratio of koff/kon. Further, multiple KLK5 inhibitory peptides were measured by regenerating Sensor Chip CAP using a Regeneration buffer attached to a Biotin CAPture Kit (GE healthcare) and repeatedly capturing biotinylated KLK5.

First: B1
Second: B2
The “Koff” value of the first is 410-fold higher: 0.0012 s⁻¹ for the first, 2.9e-06 s⁻¹ for the second.

First: B3
Second: B4
The “Koff” value of the first is 35-fold lower: 1e-06 s⁻¹ for the first, 3.5e-05 s⁻¹ for the second.

Compared with B5, B6 is 50-fold lower in “Koff” value: 5e-05 s⁻¹ for the first, 1e-06 s⁻¹ for the second.

Going from B7 to B8, the “Koff” value rises from 2e-05 s⁻¹ to 0.0015 s⁻¹ (75-fold).

Going from B9 to B10, the “Koff” value rises from 1.8e-05 s⁻¹ to 0.00029 s⁻¹ (16-fold).

Compared with B11, B12 is 12-fold lower in “Koff” value: 0.00027 s⁻¹ for the first, 2.2e-05 s⁻¹ for the second.

First: B13
Second: B14
The “Koff” value of the first is 3.2-fold higher: 5.7e-05 s⁻¹ for the first, 1.8e-05 s⁻¹ for the second.

These molecules were tested against T1, KLK5 (assay: X-ray crystal structure analysis of KLK5/KLK5 inhibitory peptide complex). Conditions: resolution 1.8 Å.
Protocol: According to the methods described in (1-2) and (2-2), KLK5 inhibitory peptides K51034 and KLK5 having the amino acid sequences shown by the SEQ ID numbers were prepared. After mixing the two under conditions of 50 mM Tris-HCl, 150 mM NaCl, and pH 8.0, a complex was isolated and purified by gel filtration chromatography (Superdex 200 10/300 GL).
The complex solution prepared in (4-1) was concentrated to 12 mg/mL, thereafter mixed with a reservoir solution (0.2 M Magnesium Chloride hexahydrate, 20% PEG3350) at a ratio of 1:1, and crystallized by a vapor diffusion method. The obtained cubic single crystal was immersed in a reservoir solution containing 20% glycerol and thereafter frozen in liquid nitrogen. The frozen crystals were irradiated with X-rays in a cryo-stream to obtain a diffraction image (Hypixel 6000HE/MicroMax007). Scaling data with a maximum resolution of 1.7 Å was obtained by analysis using CrysAlisPro. The phase was determined by the molecular replacement method using KLK5 alone (PDB ID: 2PSX) and SPINK2 alone (PDB ID: 2JXD) as templates. After structural refinement, complex crystals of KLK5/the peptide K51034 were determined at a resolution of 1.8 Å. One molecule each of KLK5 and SPINK2 was contained in a unit cell. […]

In the case of B4, the “binding site on KLK5 in complex crystal” value is reported as “bound to a region containing the KLK5 enzyme's active site”.

What follows are molecules tested against T2, human KLK14 (Homo sapiens, UniProt Q9P0G3) (assay: Human KLK14 inhibitory activity, peptide substrate degradation). Conditions: KLK5 inhibitory peptide; hKLK14 0.2 μg/mL, substrate 100 μM.
T2 construct: His tag (C); FLAG (Gly-DYKDDDDK before the His tag); made in house; host or cells: Expi293F cells
T2 sequence (Q9P0G3 25-251): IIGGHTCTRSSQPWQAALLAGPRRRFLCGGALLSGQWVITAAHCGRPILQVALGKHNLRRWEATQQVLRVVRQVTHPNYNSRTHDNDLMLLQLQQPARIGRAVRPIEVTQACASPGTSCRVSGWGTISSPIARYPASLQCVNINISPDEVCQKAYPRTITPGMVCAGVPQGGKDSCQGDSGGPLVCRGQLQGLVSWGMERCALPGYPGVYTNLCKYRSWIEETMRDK
Assay type: biochemical
Protocol: The substrate peptide was dissolved in DMSO to 10 mM and diluted with an assay buffer (50 mM Tris-HCl, 150 mM NaCl, pH 8.0) for use. 25 μL each of human/mouse KLK5, human/mouse KLK7, or human/mouse KLK14 and the inhibitory peptide diluted with the assay buffer were mixed, followed by a reaction at 37° C. for 20 minutes. Thereafter, 50 μL of a substrate diluted with the assay buffer was added thereto, and the fluorescence signal was measured using Enspire (PerkinElmer). The combinations of the enzyme and the substrate used were as follows.
Evaluation of Human KLK14 inhibitory activity: hKLK14 with a final concentration of 0.2 μg/mL, a substrate peptide Boc-Val-Pro-Arg-AMC with a final concentration of 100 μM (R&D Systems, Inc.), and a fluorescence signal with excitation at 380 nm/emission at 460 nm
The average value of three independent experiments was used to calculate the IC50 value.
According to the method described in Example 3-1, the inhibitory activities of each KLK5 inhibitory peptide Fc fusion against human/mouse KLK5, human/mouse KLK7, and human/mouse KLK14 were evaluated. […] The average value of three independent experiments was used to calculate the IC50 value.

Molecule B1 has an IC50 of over 1000 nM.
